Measured values taken from patent US20240181075A1 (EMERGENCE THERAPEUTICS, published 2024).
One block for each binder: values may come before it.

Columns and labels:
[1] = target: T1, Nectin-4 IgV-like domain Fc fusion recombinant protein (Nec4-V) (human, UniProt Q96NY8 32-146, limits assumed); assay: ELISA, plate coated with Nec4-V Fc fusion, peroxidase-conjugated antibody
T1 construct: domain: IgV-like domain; also called Nectin-4-V-Fc; not shown: Fc part
T1 sequence (looked up): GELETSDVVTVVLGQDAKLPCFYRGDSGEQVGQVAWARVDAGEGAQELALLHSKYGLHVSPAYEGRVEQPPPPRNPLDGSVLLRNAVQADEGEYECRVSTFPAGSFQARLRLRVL
Experimental: (§1) Detection by ELISA. [0433]
(§2) One hundred μL of peroxidase substrate was added (One Step ABST, Pierce), and OD was red at 405 nm.

[2] = target: T2, Nectin-4 extracellular domain Fc fusion recombinant protein (Nec4-VCC) (human, UniProt Q96NY8 32-349); assay: ELISA, plate coated with Nec4-VCC Fc fusion, peroxidase-conjugated antibody
T2 construct: extracellular domain; also called Nectin-4-VCC-Fc; not shown: Fc part
T2 sequence (looked up): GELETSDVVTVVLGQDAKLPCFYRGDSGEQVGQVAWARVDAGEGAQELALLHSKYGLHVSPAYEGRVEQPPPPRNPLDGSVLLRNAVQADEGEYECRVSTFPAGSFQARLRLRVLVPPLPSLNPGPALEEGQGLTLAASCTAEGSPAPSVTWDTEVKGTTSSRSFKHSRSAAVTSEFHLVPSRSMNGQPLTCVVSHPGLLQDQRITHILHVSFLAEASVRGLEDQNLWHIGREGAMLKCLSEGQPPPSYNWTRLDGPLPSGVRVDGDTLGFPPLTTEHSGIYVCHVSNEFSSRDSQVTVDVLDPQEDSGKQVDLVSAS
Experimental: as §1, §2

[3] = target: T3, Nectin-1 extracellular domain Fc fusion recombinant protein (Nec1-VCC) (UniProt Q15223 31-355, limits assumed); assay: ELISA, plate coated with Nec1-VCC Fc fusion protein
T3 construct: extracellular domain; also called Nectin-1-VCC-Fc; not shown: Fc part
T3 sequence (looked up): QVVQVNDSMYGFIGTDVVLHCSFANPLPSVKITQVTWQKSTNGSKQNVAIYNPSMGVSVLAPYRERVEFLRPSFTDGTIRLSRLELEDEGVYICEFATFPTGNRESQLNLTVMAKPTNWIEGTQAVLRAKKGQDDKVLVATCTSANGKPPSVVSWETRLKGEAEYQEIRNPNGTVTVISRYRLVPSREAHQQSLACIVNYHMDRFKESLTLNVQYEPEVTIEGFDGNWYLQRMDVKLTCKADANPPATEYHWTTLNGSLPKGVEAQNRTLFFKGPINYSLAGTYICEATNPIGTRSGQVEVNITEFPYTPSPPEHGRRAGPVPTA
Experimental: as §1, §2

[4] = target: T4, human Nectin-4 on cells (CHO cells transfected with human Nectin-4 cDNA); SUM190 tumor cells; normal … (human, UniProt Q96NY8 32-510); assay: flow cytometry on normal differentiated human keratinocytes (NHEK), compared with SUM190 tumor cells
T4 construct: whole, on cells; The cell type that carried it is named under assay in each row; also called PVRL4; PRR4
T4 sequence (looked up): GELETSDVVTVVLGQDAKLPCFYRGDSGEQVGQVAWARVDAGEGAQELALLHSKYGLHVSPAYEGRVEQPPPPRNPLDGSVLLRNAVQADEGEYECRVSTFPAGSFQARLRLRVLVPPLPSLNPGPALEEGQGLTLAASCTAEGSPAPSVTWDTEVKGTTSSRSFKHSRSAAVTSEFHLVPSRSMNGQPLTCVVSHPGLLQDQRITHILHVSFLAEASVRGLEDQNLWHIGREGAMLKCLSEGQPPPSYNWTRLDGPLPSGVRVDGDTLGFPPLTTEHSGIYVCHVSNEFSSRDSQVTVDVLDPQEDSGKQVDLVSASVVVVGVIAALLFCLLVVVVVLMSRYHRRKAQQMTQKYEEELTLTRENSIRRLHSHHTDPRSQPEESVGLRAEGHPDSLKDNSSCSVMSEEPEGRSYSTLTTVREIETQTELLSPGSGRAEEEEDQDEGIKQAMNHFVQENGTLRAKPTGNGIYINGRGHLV

[5] = target: T5, human Nectin-4 with N-terminal Flag epitope tag, expressed on transfected MDA-MB231 cells (human, UniProt Q96NY8 32-510); assay: flow cytometry on MDA-MB231 cells transfected with N-terminal Flag-tagged Nectin-4, anti-human Fc PE detection
T5 construct: whole, on cells; also called PVRL4 cDNA in p3XFLR4.C1
T5 sequence (looked up): T4 sequence (looked up)
Source text: Detection by flow cytometry. [0431] […] Cells were then stained with phycoerythrin conjugate goat anti human Fc antibody. The normalized mean fluorescence intensity is shown. […] Mean fluorescence intensity is represented.

[6] = target: T2, Nectin-4 extracellular domain Fc fusion …; assay: statement in the legend of the competition ELISA on coated Nec4-VCC
Experimental: Competition assay was performed by ELISA. [0435] Ninety-six-wells plates were coated with 5 μg/mL of Nectin-4 extracellular domain Fc fusion recombinant protein (Nec4-VCC) overnight at 4° C.
as §2

[7] = target: T4, human Nectin-4 on cells (CHO cells …); assay: flow cytometry on normal differentiated human keratinocytes (NHEK); reference antibody of the comparison

- binding result [1]: binds
- binding result [2]: binds
- binding result [3]: no binding
- binding result [4]: binds
- binding result [5]: binds
B1: Ch-15A7.5 (chimeric anti-Nectin-4 monoclonal antibody 15A7.5) (antibody, V domains shown)
VH: EVKLVESGGGLVQPGGSRKLSCAASGFTFSNYGMAWVRQAPGKGPEWVAFISNLAYGINYADTVTGRFTISRENAKNTLYLEMRSLRSEDTAMYYCARGARATGWFAYWGQGTLVTVSA
VL: DIVMTQSQKFMSTSIGDRVSVTCKASQNVDTHVAWYQEKPGQSPKALIYSASYRYSGVPDRFTGSGSGTDFTLTISNVQSEDLADYFCQQYNSYPLTFGGGTKLEIK
notes: also called Ch-15A7.5 mAb; Ch-15A7 mAb

- binding result [6]: binds
B2: HA22 (Enfortumab), human monoclonal anti-Nectin-4 antibody (antibody, V domains shown)
VH: EVQLVESGGGLVQPGGSLRLSCAASGFTFSSYNMNWVRQAPGKGLEWVSYISSSSSTIYYADSVKGRFTISRDNAKNSLSLQMNSLRDEDTAVYYCARAYYYGMDVWGQGTTVTVSS
VL: DIQMTQSPSSVSASVGDRVTITCRASQGISGWLAWYQQKPGKAPKFLIYAASTLQSGVPSRFSGSGSGTDFTLTISSLQPEDFATYYCQQANSFPPTFGGGTKVEIK
notes: also called Enfortumab (HA22); HA22 mAb

- binding result [5]: binds
- binding result [7]: binds
B3: Ch-5A12.2 (chimeric anti-Nectin-4 monoclonal antibody 5A12.2) (antibody, V domains shown)
VH: QIQLQQSGAELVKPGASVTLSCKTSGFTFNSMYISWLKQKPGQSLEWIAWIYAGTGGTRFNQKFTGKVQLTVDTSSSTAYMQFSSLTTDDSAIYYCAIRSGFVPMDYWGQGTSVTVSS
VL: SIVMTQTPKFLLVSAGDRVTITCKASQSVSNDVAWYQQKPGQSPKLLIYYASNRYTGVPDRFTGSGYGTDFTFTISTVQAEDLAVYFCQQDYSSPWTFGGGTKLEIK
notes: also called Ch-5A12.2 mAb; 5A12.2 mAb
